Reference: patent US20110318827A1 (COMMISSARIAT A L ENERGIE ATOMIQUE ET AUX ENERGIES …, published 2011)
Bridge positions count the residues as written; N and C are the ends. Square brackets hold non-standard residues; d marks the D form. Ends that are not written are not given here.

B1: HTGRRRGG-RC-121 (peptide)
peptide: TGRRRGGFCYWKVCT
HELM: PEPTIDE1{T.G.R.R.R.G.G.[dF].C.Y.[dW].K.V.C.T.[am]}$PEPTIDE1,PEPTIDE1,9:R3-14:R3$$$V2.0
SMILES: CC(C)[C@@H]1NC(=O)[C@H](CCCCN)NC(=O)[C@@H](Cc2c[nH]c3ccccc23)NC(=O)[C@H](Cc2ccc(O)cc2)NC(=O)[C@@H](NC(=O)[C@@H](Cc2ccccc2)NC(=O)CNC(=O)CNC(=O)[C@H](CCCNC(=N)N)NC(=O)[C@H](CCCNC(=N)N)NC(=O)[C@H](CCCNC(=N)N)NC(=O)CNC(=O)[C@@H](N)[C@@H](C)O)CSSC[C@@H](C(=O)N[C@H](C(N)=O)[C@@H](C)O)NC1=O
notes: not complexed with Tc
B2: TcO[HTGRRRGG-RC-121] (peptide)
peptide: TGRRRGGFCYWKVCT
modifications: [TcO]3+ core chelated by the N-terminal HTGRRR tag; free N-terminus; the RC-121 part carries D-Phe, D-Trp, a C-terminal amide and the preserved disulfide bridge
B3: RC-121 (peptide)
peptide: [dF]CY[dW]KVCT-NH2
modifications: disulfide 2-7
notes: Cyclic octapeptide somatostatin analog, made by solid phase synthesis

What was measured:
[1] = target: T1, somatostatin receptor SST-2 (CHO-SST-2 (mb)) (Homo sapiens (Human), UniProt P30874 1-369); experiment: radioligand competition binding, CHO-SST-2 (mb)
T1 construct: Printed as 'CHO-SST-2 (mb)'; also called SST-2 receptor
T1 sequence (P30874 whole entry, form in doubt): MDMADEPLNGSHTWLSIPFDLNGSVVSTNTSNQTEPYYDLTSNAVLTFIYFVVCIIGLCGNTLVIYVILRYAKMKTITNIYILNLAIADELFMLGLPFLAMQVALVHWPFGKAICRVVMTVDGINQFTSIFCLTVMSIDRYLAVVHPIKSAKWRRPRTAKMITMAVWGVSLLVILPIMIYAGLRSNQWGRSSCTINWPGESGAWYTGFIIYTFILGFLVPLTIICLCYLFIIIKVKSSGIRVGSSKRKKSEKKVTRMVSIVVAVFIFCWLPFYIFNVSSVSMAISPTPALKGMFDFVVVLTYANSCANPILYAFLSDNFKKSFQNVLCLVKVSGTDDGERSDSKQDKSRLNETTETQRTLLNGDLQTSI

[2] = target: T2, Somatostatin receptor subtype 2 (SST-2) on rat pancreatic carcinoma AR4-2J cells (rat, UniProt P30680 1-369); experiment: competition with [125I]-[Tyr1]-somatostatin on AR4-2J cell suspension, filtration, Cheng-Prusoff
T2 construct: whole, on cells; Whole-cell suspension; the cells express predominantly, not only, SST-2; also called AR2-2J cells
T2 sequence (P30680 whole entry): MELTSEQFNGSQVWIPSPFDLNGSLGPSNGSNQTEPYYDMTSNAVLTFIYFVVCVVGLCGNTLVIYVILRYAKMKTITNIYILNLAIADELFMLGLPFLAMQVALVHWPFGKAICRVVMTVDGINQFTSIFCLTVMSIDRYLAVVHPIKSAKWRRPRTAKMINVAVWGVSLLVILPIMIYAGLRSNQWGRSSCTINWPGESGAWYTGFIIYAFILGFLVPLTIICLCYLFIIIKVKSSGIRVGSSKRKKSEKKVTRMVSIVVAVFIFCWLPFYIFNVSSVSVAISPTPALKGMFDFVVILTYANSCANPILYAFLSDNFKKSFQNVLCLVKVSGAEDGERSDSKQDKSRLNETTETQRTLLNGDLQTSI
Procedure: (§1) The cells were grown in tissue culture dishes (Falcon) which were incubated at 37° C. in an atmosphere of 5% CO₂ and 95% humidified air in DMEM medium with 4.5 g/l glucose supplemented with 1% L-glutamine, 20% foetal calf serum, 1% penicillin/streptomycin and amphotericin B (1 μg/mL). Subculturing was performed with a trypsin/EDTA (0.05%/0.02% w/v) solution. All products were purchased from Sigma (Saint-Quentin Fallavier; France). At 100% confluence, the medium was removed and the cells were harvested using Versen buffer (PBS+5 mM EDTA), washed with ice-cold phosphate buffer and finally centrifuged at 1000 g for 7 min (4° C.). The pellet was suspended in ice-cold buffer (10 mM MgCl₂, 0.25% BSA, 50 mM HEPES pH7.5, 1% protease inhibitor cocktail (Sigma) and cells suspension was stored in ice before binding experiments.
(§2) All binding experiments for AR4-2J cells were done at 37° C. in 10 mM MgCl₂, 0.25% BSA, 50 mM HEPES pH7.5, 1% protease inhibitor cocktail (Sigma). […] Non-specific binding was determined in the presence of 5 μM somatostatin-28. Incubation was terminated by addition of ice-cold washing buffer (Tris 10 mM pH7.2) and rapid filtration over Whatman GF/C glass fiber filters pre-soaked in 0.5% polyethylenimine. The filters activity was measured in a Cobra gamma counter. Each experiment has been performed in duplicates at least two times.

[3] = target: somatostatin receptor SST-1 (CHO-SST-1 (mb)) (Homo sapiens (Human), UniProt P30872 1-391); experiment: radioligand competition binding, CHO-SST-1 (mb)
somatostatin receptor SST-1 (CHO-SST-1 (mb)), sequence (P30872 whole entry, form in doubt): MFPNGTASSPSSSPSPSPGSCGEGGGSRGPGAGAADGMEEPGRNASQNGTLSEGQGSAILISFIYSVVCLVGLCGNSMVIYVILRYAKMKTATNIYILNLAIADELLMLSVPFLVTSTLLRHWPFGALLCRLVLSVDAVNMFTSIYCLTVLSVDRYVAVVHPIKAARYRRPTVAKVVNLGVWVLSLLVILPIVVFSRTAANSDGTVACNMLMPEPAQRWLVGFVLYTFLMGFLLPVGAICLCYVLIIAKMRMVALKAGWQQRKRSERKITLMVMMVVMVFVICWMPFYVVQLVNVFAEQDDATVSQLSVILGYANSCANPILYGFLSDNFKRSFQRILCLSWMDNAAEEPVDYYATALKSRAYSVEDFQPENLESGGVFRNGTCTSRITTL

[4] = target: somatostatin receptor SST-3 (CHO-SST-3 (mb)) (Homo sapiens (Human), UniProt P32745 1-418); experiment: radioligand competition binding, CHO-SST-3 (mb)
somatostatin receptor SST-3 (CHO-SST-3 (mb)), sequence (P32745 whole entry, form in doubt): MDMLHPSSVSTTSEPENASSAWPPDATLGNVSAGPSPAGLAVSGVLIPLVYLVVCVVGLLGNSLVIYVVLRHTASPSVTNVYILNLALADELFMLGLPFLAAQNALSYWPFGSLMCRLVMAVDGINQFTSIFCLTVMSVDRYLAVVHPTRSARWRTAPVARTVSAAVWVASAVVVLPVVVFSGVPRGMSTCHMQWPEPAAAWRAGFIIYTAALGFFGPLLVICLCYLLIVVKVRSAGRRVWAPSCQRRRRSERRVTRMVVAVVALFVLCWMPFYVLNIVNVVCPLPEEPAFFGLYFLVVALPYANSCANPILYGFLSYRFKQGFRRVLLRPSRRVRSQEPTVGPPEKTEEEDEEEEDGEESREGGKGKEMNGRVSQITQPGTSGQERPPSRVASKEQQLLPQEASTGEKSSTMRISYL

[5] = target: somatostatin receptor SST-5 (CHO-SST-5 (mb)) (Homo sapiens (Human), UniProt P35346 1-364); experiment: radioligand competition binding, CHO-SST-5 (mb)
somatostatin receptor SST-5 (CHO-SST-5 (mb)), sequence (P35346 whole entry, form in doubt): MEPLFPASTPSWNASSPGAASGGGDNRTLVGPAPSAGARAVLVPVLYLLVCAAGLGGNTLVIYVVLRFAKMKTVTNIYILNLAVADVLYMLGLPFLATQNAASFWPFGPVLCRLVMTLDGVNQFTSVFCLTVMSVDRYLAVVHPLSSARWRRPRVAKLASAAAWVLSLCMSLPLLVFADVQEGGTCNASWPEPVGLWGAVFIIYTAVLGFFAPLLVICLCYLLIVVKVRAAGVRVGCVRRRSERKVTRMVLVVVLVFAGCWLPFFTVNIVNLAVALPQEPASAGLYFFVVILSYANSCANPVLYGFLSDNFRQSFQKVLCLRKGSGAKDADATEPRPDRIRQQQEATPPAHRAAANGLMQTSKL

[6] = target: T2, Somatostatin receptor subtype 2 (SST-2) …; experiment: competition with [125I]-[Tyr1]-somatostatin on AR4-2J cell suspension
Procedure: as §1, §2

| Binder | Ki [1] | Ki [2] | Ki [3] | Ki [4] | Ki [5] | Kd [6] |
| --- | --- | --- | --- | --- | --- | --- |
| B1 | 0.02 nM | 0.035 nM |  |  |  |  |
| B2 | 0.02 nM | 0.066 nM | 58 nM | 10 nM | 30 nM | 0.06 nM |
| B3 |  | 0.3 nM |  |  |  |  |
